In paper PMC2783589:

Target: revised CpaD from Aspergillus flavus NRRL3357 (full length, with the 43 N-terminal residues added) (Aspergillus flavus NRRL3357)
Test: SEC

## revised CpaD from Aspergillus flavus NRRL3357 (full length, with the 43 N-terminal residues added) (enzyme)
  stoichiometry N: 2
